Source: the supplement of paper PMC9170038

Tested on: MS2 coat protein
Test: apparent KD of MS2 coat protein; designed switch direction (-1 OFF switch, 1 ON switch): 1; higher = weaker reporter binding
In short: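 Each step of the titration lasted 0.8–1.5 h at the lowest concentration and 10–20 min at the highest. The protein, SNAP-549-labelled MS2 coat protein, went from 0.7 or 1.5 nM doubling to 3 µM over RNA switches transcribed on Illumina chips by stalled E. coli RNA polymerase. Normalised cluster fluorescence was curve-fitted, and the per-design median over clusters is given as apparent KD.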

[1] = input ligand: microRNA oligo, concentration not stated
[2] = Eterna round: R95, input ligand: FMN 200 uM
[3] = Eterna round: R95, input ligand: microRNA oligo, concentration not stated
[4] = Eterna round: R95, input ligand: none

Sequence | apparent KD of MS2 coat protein (input ligand: FMN 200 uM) [nM] | apparent KD of MS2 coat protein [1] [nM] | apparent KD of MS2 coat protein (input ligand: none) [nM] | apparent KD of MS2 coat protein [2] [nM] | apparent KD of MS2 coat protein [3] [nM] | apparent KD of MS2 coat protein [4] [nM]
UAUUUAAUCAUAGGAUAUAGUGUGAAAUUUGGACUAGAAGGAUGUAACAUGAGGAUCACCCAUGUGGUAAGUGGGAUACAUUCC [JR_SSNG1_Sub098] (Eterna round: R96, puzzle: Same State NG 1) | 110 | 75 | 117 | – | – | –
CGGGACAGACCCAACAUGAGGAUCACCCAUGUCCUCGCAGGUCAGGAUAUUAUUAGGAUCACCAGUGAGAAGGGACGGUGAACC (Eterna round: R96, puzzle: Same State NG 3) | 470 | 281 | 373 | – | – | –
GACAAUCUAUCUGAGGAUAUCAUGAAGAAAACAUGAGGAUCACCCAUGUGCAGGAUAACUGCAAAUGAGAAGGCAGAUAGAUUGU [Mat - Same State 2 - Mod - D6] (puzzle: Same State 2) | – | – | – | 17.1 | 17.8 | 22.4
GAGUAGUUGAAAGGAUAUUGAUUAUUGUAGGAUCAAGAAGGUUUUAACAUGAGGAUCACCCAUGUAGGACUAUAAAUGUGAAAA [Parity 94 - Jieux - Same State NG 1] (Eterna round: R96, puzzle: Same State NG 1) | 12.2 | 10.1 | 15.6 | – | – | –
GGUCCAUCAUGAGGAUAUGGCACCUUAUUGGUGCCAGAAGGCAUGUCUAUAGACAUGAGGAUCACCCAUGUAAUAAAUUGGACC [Eli NG1ss - 93] (Eterna round: R96, puzzle: Same State NG 1) | 30.2 | 344 | 831 | – | – | –
GAGUGGCAGUUAGGAUAUAUAGUGAUAAUGAUAAUAGAAGGAACAGACAUGAGGAUCACCCAUGUAGGACUAAUCCAGAGAGAG [Parity 34 - Jieux - Same State NG 1] (Eterna round: R96, puzzle: Same State NG 1) | 32.3 | 21.7 | 28.3 | – | – | –
GCAUGAGAGAUAGGAUAUCGUGUACCUACAUGUGACAUGAGGAUCACCCAUGUGGUAAGUAUGAGCGAGAAGGAUCCGAUAUGU [salish99_SSNG2_r04_1002] (Eterna round: R96, puzzle: Same State NG 2) | 26.6 | 44.4 | 60.9 | – | – | –
AGUCCAGCCUGAGCUGGACAAAAGCAUGUACAUGAGGAUCACCCAUGUCAUGUACAAGCUUUUUGCUAGUCUUAAAA [Mat - hsa-mir-208a - Mod of JL - D12] (puzzle: Sensor for hsa-mir-208a) | – | – | – | 413 | 13.7 | 551
GUGGUCAGACAUGAGGAUCACCCAUGUGGAAUAAAUAACGGACAGGAUAUGCAAUAUAGGAUAUAGUAGAAGGGUUGAUUGGUG (Eterna round: R96, puzzle: Same State NG 3) | – | 49.3 | – | – | – | –
GAGGAACAUGAGGAUCACCCAUGUAGGAUGGGACAAGGAUAUGUAGAUAGCGGAGGAGAGACAGAAGGUGUAGGAA [JR_SS1_Sub053] (puzzle: Same State 1) | – | – | – | 354 | 431 | 483
UUUGGGUGGCUGGAGGAUAUUCUAGUGGUUACAUGAGGAUCACCCAUGUGUCGCGCGGUUCGCGAGGAGAAGGCUGGCGGCCGUU (puzzle: Same State 2) | – | – | – | – | 93.3 | –
GCGAAAGCCGUAGGAUAUGUAGGAUAUGGCGAGAGCUAAGCUUGGAAGUCACUUCAGCCAGAAGGACAGAAGGACGCCGAAAGG [pwkr ssNG2 2FMN + F9.15] (Eterna round: R96, puzzle: Same State NG 2) | 1410 | 387 | 46.2 | – | – | –
UUGAAUAAUUAAGGAUAUCGAGUCAAGAUGUUAAACAUGAGGAUCACCCAUGUGGGUUGCGGUAUCGAGAAGGUAAAUAAGAAG [Mat - Same State NG 2 - JL mod - D55] (Eterna round: R96, puzzle: Same State NG 2) | 26.6 | 19.6 | 42.5 | – | – | –
ACAUGAGACCUAGGAUAUUUUGUACCUACAUGUGACAUGAGGAUCACCCAUGUGGUAAGUAUGAGAAAGAAGGAGGAGAUAUGU [Equivalence 21 - Jieux - Same State NG 2] (Eterna round: R96, puzzle: Same State NG 2) | 18.1 | 30.1 | 36.7 | – | – | –
UCGGGCGUACUUGCUGACAUGAGGAUCACCCAUGUCCUUGGGAAGGAUAUGGUUCCGUUUCGGUUCCAGAAGGUCCUGGCUGCU [salish99_SSNG3_r04_317] (Eterna round: R96, puzzle: Same State NG 3) | 30.1 | 42.6 | 78.2 | – | – | –
AGUCCAGCCUGAGCUGGACAGAAGCAUGUACAUGAGGAUCACCCAUGUCAUGUACAAGCUUUUUGCUCGUCUUAAUA [Zipper 49 - 3] (puzzle: Sensor for hsa-mir-208a) | – | – | – | 459 | 16.2 | 641
GGCAGUCCGACACAGGAUAUGGGUAACGAAACAUGAGGAUCACCCAUGUGGAAACAUCGGGUUGCCUAGAAGGGUGGAAAGAUUG [Xeti] (Eterna round: R96, puzzle: Same State 2) | 32.4 | 71.6 | 124 | – | – | –
AUAAAACAUGAGGAUCACCCAUGUCAACAAAGUCGAGGAUAUGGGCUAAUAAAAUAAGAACCAGAAGGCGAAUAAU [salish99_ss1_r3_027] (puzzle: Same State 1) | – | – | – | 26.2 | 152 | 146
GUGAGAUGUUCAGGAUAUUUCAGGAUAGUUAAUCCAAGGCCAUCACAUGAGGAUCACCCAUGUCGAGAGAAGGGAAUUCUCAGG [Eternabot solution 43] (Eterna round: R96, puzzle: Same State NG 2) | 378 | 331 | 433 | – | – | –
AGUCCAGCCAGAGCUGGACAAAAGCAUGUACAUGAGGAUCACCCAUGUUCAUGUACAAGCUUUUUGCUCGUCUUAAU [Mat - hsa-mir-208a - Mod of JL - 59] (puzzle: Sensor for hsa-mir-208a) | – | – | – | 482 | 14.1 | 553
GAGCCAGUCCGAGGAUAUUCAUAUUAAAUACAUGAGGAUCACCCAUGUAGGCUCAGAGAGCCUUGGGAGAAGGCGGACUGGCUC [Xeonanisa>>1] (Eterna round: R96, puzzle: Same State NG 2) | 24.9 | 63.6 | 113 | – | – | –
UUGCUCGUGUGAGGAUAUGCCGCCGUUUCGGCUGCAGAAGGUACUCUUGUACAUGAGGAUCACCCAUGUCUCUGUUGUUUCGUG [salish99_SSNG1_r04_938] (Eterna round: R96, puzzle: Same State NG 1) | – | 43.6 | – | – | – | –
GCUCGUAUCACGACCGACAUGAGGAUCACCCAUGUAUGUUGGUAGGAUAUCUAUAUUAAGGAUAUAGAGAAGGGCCGAACGAGC [SameState NG3 #14] (Eterna round: R96, puzzle: Same State NG 3) | 23.5 | 24.8 | 30.1 | – | – | –
